Results from US20150258192A1, “COMPOSITIONS AND METHODS FOR PREVENTING OR TREATING CHRONIC LUNG ALLOGRAFT DYSFUNCTION (CLAD) AND IDIOPATHIC PULMONARY FIBROSIS (IPF)” (priority 2014, published 2015).
No end group written: not given here.

Tests used:
Assay in all cases: Kinase Profiling Assay
Format in all cases: biochemical
Details in all cases: peptide 100 μM
[1] = biological target: T1, LKB1(h) (Homo sapiens, UniProt Q15831)
T1 construct: purchased Millipore
T1 sequence (Q15831 1-433): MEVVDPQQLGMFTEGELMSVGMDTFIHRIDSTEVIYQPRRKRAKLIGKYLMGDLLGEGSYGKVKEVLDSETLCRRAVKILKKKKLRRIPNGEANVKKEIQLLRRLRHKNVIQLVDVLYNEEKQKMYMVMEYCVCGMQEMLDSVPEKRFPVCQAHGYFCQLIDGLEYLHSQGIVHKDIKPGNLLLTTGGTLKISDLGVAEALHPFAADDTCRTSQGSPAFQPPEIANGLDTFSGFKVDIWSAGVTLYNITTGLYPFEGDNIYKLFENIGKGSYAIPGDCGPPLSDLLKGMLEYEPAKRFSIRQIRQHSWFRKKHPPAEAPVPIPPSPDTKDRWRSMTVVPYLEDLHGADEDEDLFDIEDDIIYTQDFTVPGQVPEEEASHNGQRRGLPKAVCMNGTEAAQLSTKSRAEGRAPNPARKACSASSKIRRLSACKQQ
T1 sequence (Q7RTN6 1-431 partner): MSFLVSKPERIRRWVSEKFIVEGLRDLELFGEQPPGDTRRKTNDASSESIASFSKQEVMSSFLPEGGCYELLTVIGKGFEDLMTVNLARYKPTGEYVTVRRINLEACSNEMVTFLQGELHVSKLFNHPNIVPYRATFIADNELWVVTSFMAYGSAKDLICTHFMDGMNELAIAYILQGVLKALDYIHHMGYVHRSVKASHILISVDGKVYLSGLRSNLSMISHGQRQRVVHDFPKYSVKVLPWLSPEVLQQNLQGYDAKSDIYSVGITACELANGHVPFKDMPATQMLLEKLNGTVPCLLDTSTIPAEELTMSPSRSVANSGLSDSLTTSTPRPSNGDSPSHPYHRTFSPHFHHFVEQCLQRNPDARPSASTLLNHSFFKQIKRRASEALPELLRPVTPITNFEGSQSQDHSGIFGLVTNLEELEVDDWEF
T1 sequence (Q9Y376 1-341 partner): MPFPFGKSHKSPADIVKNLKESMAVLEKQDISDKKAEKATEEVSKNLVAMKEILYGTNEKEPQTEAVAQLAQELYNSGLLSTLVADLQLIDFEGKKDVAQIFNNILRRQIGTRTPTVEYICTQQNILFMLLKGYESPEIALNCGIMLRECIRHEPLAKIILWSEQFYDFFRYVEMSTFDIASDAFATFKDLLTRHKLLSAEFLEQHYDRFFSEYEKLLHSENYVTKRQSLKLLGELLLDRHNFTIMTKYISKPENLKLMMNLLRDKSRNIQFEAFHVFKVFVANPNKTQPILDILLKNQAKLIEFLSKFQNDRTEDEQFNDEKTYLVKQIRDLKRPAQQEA
How it was run: (§1)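 Kinase inhibition by MK2 inhibitory peptides was profiled radiometrically, with substrate phosphorylation from labeled ATP read by scintillation after capture on a charged filter. Values are relative to 100% activity and measured in duplicate.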

[2] = biological target: T2, Src(T341M)(h) (Homo sapiens, UniProt P12931, T341M)
T2 construct: purchased Millipore
How it was run: as §1

[3] = biological target: T3, STK33(h) (Homo sapiens, UniProt Q9BYT3)
T3 construct: purchased Millipore
How it was run: as §1

[4] = biological target: EphA7(h) (Homo sapiens, UniProt Q15375)
How it was run: as §1

[5] = biological target: T4, ASK1(h) (Homo sapiens, UniProt Q99683)
T4 sequence (Q99683 1-1374): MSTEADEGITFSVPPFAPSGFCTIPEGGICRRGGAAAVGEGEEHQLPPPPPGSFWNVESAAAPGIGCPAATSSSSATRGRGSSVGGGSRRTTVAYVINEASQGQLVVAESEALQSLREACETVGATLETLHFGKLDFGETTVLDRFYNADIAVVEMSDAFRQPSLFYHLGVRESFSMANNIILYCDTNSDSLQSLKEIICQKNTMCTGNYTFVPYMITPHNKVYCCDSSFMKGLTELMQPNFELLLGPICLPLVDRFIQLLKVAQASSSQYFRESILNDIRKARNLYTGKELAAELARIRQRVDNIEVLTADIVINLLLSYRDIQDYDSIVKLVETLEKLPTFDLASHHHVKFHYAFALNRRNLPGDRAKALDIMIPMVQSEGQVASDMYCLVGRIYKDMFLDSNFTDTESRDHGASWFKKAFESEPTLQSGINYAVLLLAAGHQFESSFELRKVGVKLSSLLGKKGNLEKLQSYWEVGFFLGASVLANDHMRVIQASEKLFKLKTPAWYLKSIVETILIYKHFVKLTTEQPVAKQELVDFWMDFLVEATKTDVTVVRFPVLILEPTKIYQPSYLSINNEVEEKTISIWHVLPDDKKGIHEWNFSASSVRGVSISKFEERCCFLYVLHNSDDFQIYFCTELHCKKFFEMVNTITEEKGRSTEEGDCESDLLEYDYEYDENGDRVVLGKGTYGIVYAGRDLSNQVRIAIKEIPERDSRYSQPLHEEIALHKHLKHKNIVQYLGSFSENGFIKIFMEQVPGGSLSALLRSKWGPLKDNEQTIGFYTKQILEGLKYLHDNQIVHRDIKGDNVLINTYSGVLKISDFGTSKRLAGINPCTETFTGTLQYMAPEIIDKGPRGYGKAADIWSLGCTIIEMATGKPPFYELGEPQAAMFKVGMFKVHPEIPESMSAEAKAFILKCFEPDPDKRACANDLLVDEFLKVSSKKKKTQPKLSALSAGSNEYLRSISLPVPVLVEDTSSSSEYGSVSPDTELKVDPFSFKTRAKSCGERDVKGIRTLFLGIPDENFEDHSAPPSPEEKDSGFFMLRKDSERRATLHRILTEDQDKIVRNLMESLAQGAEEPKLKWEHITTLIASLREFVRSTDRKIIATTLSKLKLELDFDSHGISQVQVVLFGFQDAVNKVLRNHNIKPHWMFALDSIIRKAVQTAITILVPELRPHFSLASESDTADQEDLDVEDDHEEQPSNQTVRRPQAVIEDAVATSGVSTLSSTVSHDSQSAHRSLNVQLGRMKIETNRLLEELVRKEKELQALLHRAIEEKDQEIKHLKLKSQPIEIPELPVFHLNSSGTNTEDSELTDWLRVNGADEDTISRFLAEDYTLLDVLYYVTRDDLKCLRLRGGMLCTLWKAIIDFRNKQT
How it was run: as §1

[6] = biological target: Arg(h) (Homo sapiens, UniProt P42684)
How it was run: as §1

Sequence of Arg(h) (P42684 whole entry): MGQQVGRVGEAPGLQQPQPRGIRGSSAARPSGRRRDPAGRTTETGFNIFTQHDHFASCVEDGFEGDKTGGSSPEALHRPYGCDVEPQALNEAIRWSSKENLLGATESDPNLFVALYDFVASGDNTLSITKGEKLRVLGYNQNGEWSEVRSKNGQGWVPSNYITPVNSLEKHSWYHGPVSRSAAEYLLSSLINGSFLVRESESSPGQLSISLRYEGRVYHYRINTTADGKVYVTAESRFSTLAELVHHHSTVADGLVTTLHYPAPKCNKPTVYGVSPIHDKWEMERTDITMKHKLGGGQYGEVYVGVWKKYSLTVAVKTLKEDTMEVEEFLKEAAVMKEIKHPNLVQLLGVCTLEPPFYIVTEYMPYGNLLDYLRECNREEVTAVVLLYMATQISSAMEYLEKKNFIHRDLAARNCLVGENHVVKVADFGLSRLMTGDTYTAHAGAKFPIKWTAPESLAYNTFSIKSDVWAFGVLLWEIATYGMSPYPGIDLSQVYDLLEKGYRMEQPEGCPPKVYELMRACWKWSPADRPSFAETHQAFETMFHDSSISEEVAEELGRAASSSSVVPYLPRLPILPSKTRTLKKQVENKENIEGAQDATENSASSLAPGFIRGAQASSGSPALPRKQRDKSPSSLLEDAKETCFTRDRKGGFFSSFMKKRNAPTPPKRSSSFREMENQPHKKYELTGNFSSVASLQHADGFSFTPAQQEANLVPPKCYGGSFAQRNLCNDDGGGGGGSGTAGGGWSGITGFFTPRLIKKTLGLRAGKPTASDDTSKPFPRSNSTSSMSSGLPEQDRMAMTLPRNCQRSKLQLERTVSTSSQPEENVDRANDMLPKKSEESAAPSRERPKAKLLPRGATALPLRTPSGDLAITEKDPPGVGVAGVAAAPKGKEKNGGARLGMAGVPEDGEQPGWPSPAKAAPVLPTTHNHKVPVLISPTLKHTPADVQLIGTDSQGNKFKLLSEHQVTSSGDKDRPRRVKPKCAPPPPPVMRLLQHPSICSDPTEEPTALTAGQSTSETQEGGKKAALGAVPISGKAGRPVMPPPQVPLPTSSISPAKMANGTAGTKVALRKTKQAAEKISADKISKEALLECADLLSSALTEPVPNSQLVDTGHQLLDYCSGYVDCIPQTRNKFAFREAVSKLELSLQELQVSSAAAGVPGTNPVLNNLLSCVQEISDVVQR
T3 sequence (Q9BYT3 whole entry): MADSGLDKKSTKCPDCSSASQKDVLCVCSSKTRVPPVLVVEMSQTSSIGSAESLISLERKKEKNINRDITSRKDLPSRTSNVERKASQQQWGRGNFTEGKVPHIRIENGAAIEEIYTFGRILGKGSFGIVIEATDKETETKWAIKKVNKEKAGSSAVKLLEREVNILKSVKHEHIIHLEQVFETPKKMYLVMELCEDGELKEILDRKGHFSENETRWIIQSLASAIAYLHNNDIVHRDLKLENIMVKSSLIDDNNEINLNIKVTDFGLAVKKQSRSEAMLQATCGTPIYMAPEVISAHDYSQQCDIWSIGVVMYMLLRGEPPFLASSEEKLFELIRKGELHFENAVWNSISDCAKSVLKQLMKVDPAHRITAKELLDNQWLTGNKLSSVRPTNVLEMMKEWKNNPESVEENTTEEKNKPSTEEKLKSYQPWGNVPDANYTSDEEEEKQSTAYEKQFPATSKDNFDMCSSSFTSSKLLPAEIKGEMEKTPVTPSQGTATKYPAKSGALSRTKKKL
Sequence of EphA7(h) (Q15375 28-998): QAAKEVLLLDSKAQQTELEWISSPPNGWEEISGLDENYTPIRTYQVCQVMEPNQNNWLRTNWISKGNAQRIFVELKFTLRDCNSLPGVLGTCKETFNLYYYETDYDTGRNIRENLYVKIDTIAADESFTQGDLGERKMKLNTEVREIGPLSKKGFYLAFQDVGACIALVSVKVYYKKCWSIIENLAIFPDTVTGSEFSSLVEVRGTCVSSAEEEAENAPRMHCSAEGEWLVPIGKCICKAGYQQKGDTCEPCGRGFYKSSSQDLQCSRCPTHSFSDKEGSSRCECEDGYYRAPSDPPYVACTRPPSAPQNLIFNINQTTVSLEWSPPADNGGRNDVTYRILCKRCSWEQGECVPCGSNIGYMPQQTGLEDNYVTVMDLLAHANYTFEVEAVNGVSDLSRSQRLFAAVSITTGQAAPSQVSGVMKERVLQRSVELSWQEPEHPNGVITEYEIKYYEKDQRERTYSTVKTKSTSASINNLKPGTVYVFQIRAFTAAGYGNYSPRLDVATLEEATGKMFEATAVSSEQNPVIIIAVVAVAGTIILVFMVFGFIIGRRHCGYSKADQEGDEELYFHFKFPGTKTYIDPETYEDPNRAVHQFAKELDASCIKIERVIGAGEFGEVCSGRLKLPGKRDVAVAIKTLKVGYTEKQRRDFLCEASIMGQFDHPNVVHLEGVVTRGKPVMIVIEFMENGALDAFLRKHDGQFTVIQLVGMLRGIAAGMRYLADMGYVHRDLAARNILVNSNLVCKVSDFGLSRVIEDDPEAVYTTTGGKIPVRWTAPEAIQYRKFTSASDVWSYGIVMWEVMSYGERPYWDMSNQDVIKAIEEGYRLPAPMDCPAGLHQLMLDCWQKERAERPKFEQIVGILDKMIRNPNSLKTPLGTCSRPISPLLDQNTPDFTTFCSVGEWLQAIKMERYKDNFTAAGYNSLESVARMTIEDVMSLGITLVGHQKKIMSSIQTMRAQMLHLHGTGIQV

Sequence | % activity [1] [%] | % activity [2] [%] | % activity [3] [%] | % activity [4] [%] | % activity [5] [%] | % activity [6] [%]
FAKLAARLYRKALARQLGVAA [MMI-0300] | 101 | 70 | 45 | 159 | 80 | 72
HRRIKAWLKKIKALARQLGVAA (Mammal) [MMI-0500] | 51 | 59 | 16 | 189 | -4 | 22
KAFAKLAARLYRKALARQLGVAA [MMI-0400] | 89 | 76 | 52 | 222 | 69 | 84
YARAAARQARAKALARQLGVAA [MMI-0100] | – | – | 99 | 193 | – | –
YARAAARQARAKALNRQLGVA (Mammal) [MMI-0200] | 99 | 56 | 98 | 220 | 101 | 82
